Values belong to the binder of their own block, whether it stands above or below them.
Assays:
[1] = target: T1, human IL23Ra (coated on beads) (human, UniProt Q5VWK5 24-353, limits assumed); experiment: flow cytometry; biotinylated scFv on human IL23Ra-coated beads, detected with APC-streptavidin, EC50 from median fluorescence intensity
T1 construct: also called human IL-23R alpha subunit
T1 sequence (looked up): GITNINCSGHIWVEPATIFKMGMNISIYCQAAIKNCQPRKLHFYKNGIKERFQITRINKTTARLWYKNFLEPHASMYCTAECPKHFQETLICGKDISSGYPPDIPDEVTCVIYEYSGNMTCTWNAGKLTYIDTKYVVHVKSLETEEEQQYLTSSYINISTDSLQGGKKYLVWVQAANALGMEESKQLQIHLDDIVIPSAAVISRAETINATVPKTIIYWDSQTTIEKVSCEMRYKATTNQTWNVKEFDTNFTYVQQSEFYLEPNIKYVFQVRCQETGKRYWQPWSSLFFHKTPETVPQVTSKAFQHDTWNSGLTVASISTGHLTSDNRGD
Protocol: (§1) The indicated scFVs were produced in mammalian 293tcells, purified and biotinylated. Biotinylated scFvs were then incubated at 25° C. with mouse or human IL23Ra-coated beads for 30 min in PBS. After cold washing, bound IL23R bound scFV was detected by incubation with APC-labelled Streptavidin and analysis of the samples on a Flow-cytometer. An EC50 was calculated based on the median fluorescence intensity from each condition. Calculation, curve fitting and EC50 calculation was performed via Graphpad Prism.

[2] = target: T2, mouse IL23Ra (coated on beads) (mouse, UniProt Q8K4B4 24-372, limits assumed); experiment: ratio of the EC50 values on mouse and human IL23Ra-coated beads (flow cytometry)
T2 construct: also called mouse IL-23R alpha subunit
T2 sequence (looked up): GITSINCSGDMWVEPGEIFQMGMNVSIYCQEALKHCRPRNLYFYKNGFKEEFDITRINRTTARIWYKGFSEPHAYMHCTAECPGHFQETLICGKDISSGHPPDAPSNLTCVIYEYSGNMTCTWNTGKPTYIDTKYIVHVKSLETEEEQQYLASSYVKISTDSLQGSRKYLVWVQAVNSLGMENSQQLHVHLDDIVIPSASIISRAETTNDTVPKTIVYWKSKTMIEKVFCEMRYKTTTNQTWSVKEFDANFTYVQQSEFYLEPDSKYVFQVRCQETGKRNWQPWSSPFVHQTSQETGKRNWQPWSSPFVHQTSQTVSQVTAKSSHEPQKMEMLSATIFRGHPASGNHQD
Protocol: as §1

[3] = target: T2, mouse IL23Ra (coated on beads); experiment: flow cytometry; biotinylated scFv on mouse IL23Ra-coated beads, detected with APC-streptavidin, EC50 from median fluorescence intensity
Protocol: as §1

[4] = target: IL-23R (coated on beads, Example 1); experiment: cell-based or functional assay
IL-23R (coated on beads, Example 1), sequence (Q5VWK5 whole entry): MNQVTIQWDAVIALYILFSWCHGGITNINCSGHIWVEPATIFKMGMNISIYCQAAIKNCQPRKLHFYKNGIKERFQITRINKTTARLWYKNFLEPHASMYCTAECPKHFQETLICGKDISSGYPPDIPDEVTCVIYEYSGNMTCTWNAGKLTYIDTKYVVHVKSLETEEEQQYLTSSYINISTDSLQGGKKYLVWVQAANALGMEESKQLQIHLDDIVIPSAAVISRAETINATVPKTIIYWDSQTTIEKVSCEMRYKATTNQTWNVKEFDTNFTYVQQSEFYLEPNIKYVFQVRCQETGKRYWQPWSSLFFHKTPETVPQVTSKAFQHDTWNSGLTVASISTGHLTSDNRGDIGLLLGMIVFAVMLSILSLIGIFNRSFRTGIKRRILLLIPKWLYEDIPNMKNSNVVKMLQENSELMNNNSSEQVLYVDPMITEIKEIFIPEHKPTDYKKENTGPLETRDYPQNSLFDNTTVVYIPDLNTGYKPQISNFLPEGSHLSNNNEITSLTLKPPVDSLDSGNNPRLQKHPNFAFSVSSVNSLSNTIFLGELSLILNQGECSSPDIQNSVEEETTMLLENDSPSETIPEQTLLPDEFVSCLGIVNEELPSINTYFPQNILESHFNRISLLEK

EC50 [1]: 37.6 nM | fold difference in binding affinity between human IL23R and mouse IL23R [2]: ~1.4 fold | EC50 [3]: 53.1 nM
B1: anti-IL-23R scFv IL23RLamS4-G3 (scFv)
scFv: QSVLTQPPSVSGAPGQRVTISCTGSSSNIGAGYDVHWYQQLPGTAPKLLIYGNNNRPSGVPDRFSGSKSGTSASLAITGLQAEDEADYYCQSYDTGLSAWVFGGGTKLTVLGGGGSGGGGSGGGGSQLQLQESGPGLVKPSETLSLTCTVSGGSITSSNYYWGWIRQPPGKGLEWIGSIYYSGNTYYNPSLKSRVTISVDTSKNQFSLKLSSVTAADTAVYYCAREWSPYESEGFDYWGQGTLVTVSS
modifications: biotinylated (sites not given)
notes: also called hmIL23R LamS4-G3; scFv of the present disclosure

CD69+ cells (CAR-Treg activation) after 24 h with IL-23R coated beads, fold increase [4]: 3.6 fold
B2: CAR #2 (anti-IL-23R chimeric antigen receptor with scFv IL23RLamS4-G3, CD8 hinge, CD8 TM, CD28, CD3 zeta) (other)
chain: SYPYDVPDYASQSVLTQPPSVSGAPGQRVTISCTGSSSNIGAGYDVHWYQQLPGTAPKLLIYGNNNRPSGVPDRFSGSKSGTSASLAITGLQAEDEADYYCQSYDTGLSAWVFGGGTKLTVLGGGGSGGGGSGGGGSQLQLQESGPGLVKPSETLSLTCTVSGGSITSSNYYWGWIRQPPGKGLEWIGSIYYSGNTYYNPSLKSRVTISVDTSKNQFSLKLSSVTAADTAVYYCAREWSPYESEGFDYWGQGTLVTVSSTTTPAPRPPTPAPTIASQPLSLRPEACRPAAGGAVHTRGLDFACDIYIWAPLAGTCGVLLLSLVITLYCRSKRSRLLHSDYMNMTPRRPGPTRKHYQPYAPPRDFAAYRSRVKFSRSADAPAYQQGQNQLYNELNLGRREEYDVLDKRRGRDPEMGGKPRRKNPQEGLYNELQKDKMAEAYSEIGMKGERRRGKGHDGLYQGLSTATKDTYDALHMQALPPR
